According to patent US20130133089A1 (MEDICAL RESEARCH INFRASTRUCTURE AND HEALTH SERVICES FUND OF …, published 2013):
Like-named read-outs stand apart in the source and are kept apart here.

T1: Recombinant human leptin binding domain (hLBD) (human, UniProt P48357 428-635, biotinylated with Sulfo-NHS-LC-Biotin in the yeast display assays; not labelled when immobilized in the plate binding assay)
T1 construct: CRH2 sub-domain of the leptin receptor; Prepared in the applicants' laboratory; also called soluble human leptin receptor; CHR2
T1 sequence (looked up): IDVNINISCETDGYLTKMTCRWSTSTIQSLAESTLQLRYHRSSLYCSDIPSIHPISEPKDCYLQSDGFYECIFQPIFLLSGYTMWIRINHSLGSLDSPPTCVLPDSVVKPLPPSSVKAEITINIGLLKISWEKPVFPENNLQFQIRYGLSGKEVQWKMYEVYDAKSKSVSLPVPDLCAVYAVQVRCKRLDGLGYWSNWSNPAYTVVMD


Tests used:
[1] = molecular target: long form of human leptin receptor (hLEPR) on BAF/3 or H-49 (HEK-293) cells (human) (UniProt P48357); assay: cell-based or functional assay
Chain of long form of human leptin receptor (hLEPR) on BAF/3 or H-49 (HEK-293) cells (human) (P48357 22-1165): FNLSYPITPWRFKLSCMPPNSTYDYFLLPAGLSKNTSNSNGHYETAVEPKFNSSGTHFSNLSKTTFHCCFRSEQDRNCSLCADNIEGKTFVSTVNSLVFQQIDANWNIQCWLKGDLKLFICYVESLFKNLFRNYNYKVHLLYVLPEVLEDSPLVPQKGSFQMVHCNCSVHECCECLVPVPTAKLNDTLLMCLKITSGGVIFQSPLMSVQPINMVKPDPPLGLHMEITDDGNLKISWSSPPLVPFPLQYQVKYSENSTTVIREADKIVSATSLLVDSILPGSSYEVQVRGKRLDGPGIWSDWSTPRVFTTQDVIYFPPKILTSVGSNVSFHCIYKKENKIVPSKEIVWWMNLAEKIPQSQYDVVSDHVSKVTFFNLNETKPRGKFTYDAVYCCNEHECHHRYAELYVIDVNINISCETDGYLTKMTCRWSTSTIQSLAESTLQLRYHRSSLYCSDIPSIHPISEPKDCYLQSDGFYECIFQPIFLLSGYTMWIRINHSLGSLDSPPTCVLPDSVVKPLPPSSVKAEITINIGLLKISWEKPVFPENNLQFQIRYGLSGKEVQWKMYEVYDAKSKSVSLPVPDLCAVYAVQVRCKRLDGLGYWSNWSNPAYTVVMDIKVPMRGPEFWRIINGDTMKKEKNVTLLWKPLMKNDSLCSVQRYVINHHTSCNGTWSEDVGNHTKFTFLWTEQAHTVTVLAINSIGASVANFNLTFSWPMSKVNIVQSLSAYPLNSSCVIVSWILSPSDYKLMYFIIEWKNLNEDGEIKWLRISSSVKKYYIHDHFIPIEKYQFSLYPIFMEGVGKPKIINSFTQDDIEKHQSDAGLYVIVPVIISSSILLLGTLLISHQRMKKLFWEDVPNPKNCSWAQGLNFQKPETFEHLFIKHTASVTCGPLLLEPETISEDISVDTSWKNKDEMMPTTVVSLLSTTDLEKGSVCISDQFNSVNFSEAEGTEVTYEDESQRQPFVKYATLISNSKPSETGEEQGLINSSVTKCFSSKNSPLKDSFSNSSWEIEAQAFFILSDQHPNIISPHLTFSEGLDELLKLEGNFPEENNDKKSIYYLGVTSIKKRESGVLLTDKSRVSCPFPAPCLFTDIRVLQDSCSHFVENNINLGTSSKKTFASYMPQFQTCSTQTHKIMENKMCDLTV

[2] = molecular target: Recombinant human leptin binding domain (hLBD) (human) (UniProt P48357); assay: competitive plate binding assay: immobilized hLBD, biotinylated mouse leptin as ligand, mutein as competitor
[3] = molecular target: long form of human leptin receptor (hLEPR) on BAF/3 or H-49 (HEK-293) cells (human), P48357; assay: cell-based or functional assay
Chain of long form of human leptin receptor (hLEPR) on BAF/3 or H-49 (HEK-293) cells (human), P48357 (P48357 22-1165): as above

[4] = molecular target: T1, Recombinant human leptin binding domain …; assay: competitive plate binding assay: immobilized hLBD, biotinylated mouse leptin as ligand, mutein as competitor
Procedure: (§1) Biotinylated mouse leptin served as the ligand in all competitive experiments and the respective mouse leptin or mouse or human leptin antagonist muteins as competitors. The hLBD was used as the receptor source. Polystyrene 96-well microtiter plates were coated overnight at 4° C. with 100 μl of 40 μM hLBD in PBS pH 7.4. Wells were then washed one time with PBST (PBS containing 0.05 Tween 20) and blocked with PBS containing 3% skim milk for two hours in room temperature. All further incubations were carried out at room temperature. Wells were washed one time with PBST and incubated with different concentrations of un-labeled leptins (50 μl/well) for 30 min and then 50 μl of 62.5 μM of biotinylated mouse leptin were added to each well for another two hours. Then the wells were washed three times with PBST and incubated with 1:30,000 streptavidin-HRP in PBS containing 1 Tween 20 for one hour. Subsequently the wells were washed three times with PBST and the reaction was quantified in 450 nm by microplate reader ELISA Plate Reader ELx808—Bio-Tek Instrument Inc. (Winooski, Vt., USA) using TMB according to manufacturer's instructions.

[5] = molecular target: T1, Recombinant human leptin binding domain …; assay: as above; remark: listed apart in the source
Procedure: as §1

[6] = molecular target: T1, Recombinant human leptin binding domain …; assay: competitive plate binding assay on immobilized hLBD
Procedure: as §1

[7] = molecular target: T1, Recombinant human leptin binding domain …; assay: competitive plate binding assay on immobilized hLBD, representative experiment (FIG. 7D)
Procedure: as §1

[8] = molecular target: T1, Recombinant human leptin binding domain …; assay: competitive plate binding assay on immobilized hLBD (FIG. 12C)
Procedure: as §1

[9] = molecular target: T1, Recombinant human leptin binding domain …; assay: competitive plate binding assay on immobilized hLBD (FIG. 12D)
Procedure: as §1

| BAF/3 bioassay: fold increase in bioactivity as compared to the WT mouse leptin antagonist [3] [fold] | fold increase in affinity as compared to the WT mouse leptin antagonist [4] [fold] | also measured | Molecule |
| --- | --- | --- | --- |
| – | – | BAF/3 bioassay: fold increase in bioactivity as compared to the WT mouse leptin [1]: 0.5 fold; Luciferase bioassay: fold increase in bioactivity as compared to the WT mouse leptin [1]: 0.3 fold; fold increase in affinity as compared to the WT mouse leptin [2]: 0.83 fold | recombinant mouse leptin mutein H7 (K11R, Q34R, T37A, F92C, S97Y, I136V), agonist (from UniProt P41160 22-167) (ligand) |
| 2.5 | 17.5 | – | mouse leptin antagonist D23G/L39A/D40A/F41A (ligand, mature) AVPIQKVQDDTKTLIKTIVTRINGISHTQSVSAKQRVTGAAAIPGLHPILSLSKMDQTLAVYQQVLTSLPSQNVLQIANDLENLRDLLHLLAFSKSCSLPQTSGLQKPESLDGVLEASLYSTEVVALSRLQGSLQDILQQLDVSPEC |
| 3.3 | 21 | – | mouse leptin antagonist D23A/L39A/D40A/F41A (ligand, mature) AVPIQKVQDDTKTLIKTIVTRINAISHTQSVSAKQRVTGAAAIPGLHPILSLSKMDQTLAVYQQVLTSLPSQNVLQIANDLENLRDLLHLLAFSKSCSLPQTSGLQKPESLDGVLEASLYSTEVVALSRLQGSLQDILQQLDVSPEC |
| 3.7 | 28 | – | mouse leptin antagonist D23F/L39A/D40A/F41A (ligand, mature) AVPIQKVQDDTKTLIKTIVTRINFISHTQSVSAKQRVTGAAAIPGLHPILSLSKMDQTLAVYQQVLTSLPSQNVLQIANDLENLRDLLHLLAFSKSCSLPQTSGLQKPESLDGVLEASLYSTEVVALSRLQGSLQDILQQLDVSPEC |
| 5 | 34 | Luciferase bioassay: fold increase in bioactivity as compared to the WT mouse leptin antagonist [3]: 5.7 fold; fold increase in affinity as compared to the WT mouse leptin antagonist [5]: 34 fold | mouse leptin antagonist D23H/L39A/D40A/F41A (ligand, mature; also called H30 (antagonist); D23H MLA) AVPIQKVQDDTKTLIKTIVTRINHISHTQSVSAKQRVTGAAAIPGLHPILSLSKMDQTLAVYQQVLTSLPSQNVLQIANDLENLRDLLHLLAFSKSCSLPQTSGLQKPESLDGVLEASLYSTEVVALSRLQGSLQDILQQLDVSPEC |
| 3.7 | 19 | – | mouse leptin antagonist D23K/L39A/D40A/F41A (ligand, mature) AVPIQKVQDDTKTLIKTIVTRINKISHTQSVSAKQRVTGAAAIPGLHPILSLSKMDQTLAVYQQVLTSLPSQNVLQIANDLENLRDLLHLLAFSKSCSLPQTSGLQKPESLDGVLEASLYSTEVVALSRLQGSLQDILQQLDVSPEC |
| 8.6 | 51 | – | mouse leptin antagonist D23R/L39A/D40A/F41A (ligand, mature; also called D23R MLA) AVPIQKVQDDTKTLIKTIVTRINRISHTQSVSAKQRVTGAAAIPGLHPILSLSKMDQTLAVYQQVLTSLPSQNVLQIANDLENLRDLLHLLAFSKSCSLPQTSGLQKPESLDGVLEASLYSTEVVALSRLQGSLQDILQQLDVSPEC |
| 4.2 | 36 | – | mouse leptin antagonist D23W/L39A/D40A/F41A (ligand, mature) AVPIQKVQDDTKTLIKTIVTRINWISHTQSVSAKQRVTGAAAIPGLHPILSLSKMDQTLAVYQQVLTSLPSQNVLQIANDLENLRDLLHLLAFSKSCSLPQTSGLQKPESLDGVLEASLYSTEVVALSRLQGSLQDILQQLDVSPEC |
| – | – | fold reduction in affinity by pegylation, as compared to MLA [6]: 6.3 fold | pegylated mouse leptin antagonist (PEG-MLA) (ligand, pegylated (method previously described for MLA; 20 kDa PEG, site not restated here), mature; also called pegylated-MLA) AVPIQKVQDDTKTLIKTIVTRINDISHTQSVSAKQRVTGAAAIPGLHPILSLSKMDQTLAVYQQVLTSLPSQNVLQIANDLENLRDLLHLLAFSKSCSLPQTSGLQKPESLDGVLEASLYSTEVVALSRLQGSLQDILQQLDVSPEC |
| – | – | BAF/3 bioassay: fold increase in bioactivity as compared to the WT mouse leptin [3]: 0.9 fold; Luciferase bioassay: fold increase in bioactivity as compared to the WT mouse leptin [3]: 1.5 fold; fold increase in affinity as compared to the WT mouse leptin [5]: 10.4 fold | recombinant mouse leptin mutein H19 (D23G, T37A, G44D), agonist (ligand, mature) AVPIQKVQDDTKTLIKTIVTRINGISHTQSVSAKQRVAGLDFIPDLHPILSLSKMDQTLAVYQQVLTSLPSQNVLQIANDLENLRDLLHLLAFSKSCSLPQTSGLQKPESLDGVLEASLYSTEVVALSRLQGSLQDILQQLDVSPEC |
| – | – | BAF/3 bioassay: fold increase in bioactivity as compared to the WT mouse leptin [3]: 0.3 fold; Luciferase bioassay: fold increase in bioactivity as compared to the WT mouse leptin [3]: 0.6 fold; fold increase in affinity as compared to the WT mouse leptin [5]: 35 fold | recombinant mouse leptin mutein H30 (D23H), agonist (ligand, mature) AVPIQKVQDDTKTLIKTIVTRINHISHTQSVSAKQRVTGLDFIPGLHPILSLSKMDQTLAVYQQVLTSLPSQNVLQIANDLENLRDLLHLLAFSKSCSLPQTSGLQKPESLDGVLEASLYSTEVVALSRLQGSLQDILQQLDVSPEC |
| – | – | fold reduction in affinity as compared to the non-pegylated SMLA [7]: 6.2 fold | pegylated superactive mouse leptin antagonist (PEG-SMLA) (ligand, mPEG-propionyl-ALD 20 kDa, preferentially on the N-terminal amino group (85% monopegylated, ~9% double pegylated), also called pegylated SMLA; superANT) VPIQKVQDDTKTLIKTLVTRINLISHTQSVSAKQRVTGAAAIPGLHPILSLSKMDQTLAVYQQVLTSLPSQNVLQIANDLENLRDLLHLLAFSKSCSLPQTSGLQKPESLDGVLEASLYSTEVVALSRLQGSLQDILQQVDLSPGC |
| – | 64 | – | superactive mouse leptin antagonist (SMLA), D23L/L39A/D40A/F41A mouse leptin (ligand, also called D23L MLA; super active MLA) VPIQKVQDDTKTLIKTLVTRINLISHTQSVSAKQRVTGAAAIPGLHPILSLSKMDQTLAVYQQVLTSLPSQNVLQIANDLENLRDLLHLLAFSKSCSLPQTSGLQKPESLDGVLEASLYSTEVVALSRLQGSLQDILQQVDLSPGC |
| – | – | fold increase in the affinity due to D23L mutation (against HLA) [8]: 44 fold | human leptin super antagonist (SHLA), human leptin D23L/L39A/D40A/F41A (ligand, also called super active human leptin antagonist) VPIQKVQDDTKTLIKTIVTRINLISHTQSVSSKQKVTGAAAIPGLHPILTLSKMDQTLAVYQQILTSMPSQNVIQISNDLENLRDLLHVLAFSKSCHLPWASGLETLDSLGGVLEASGYSTEVVALSRLQGSLQDMLWQLDLSPGC |
| – | – | fold increase in the affinity due to D23L mutation (against PEG-HLA) [9]: 80 fold | pegylated human leptin super antagonist (PEG-SHLA) (ligand, mPEG-propionyl-ALD 20 kDa, preferentially on the N-terminal amino group) VPIQKVQDDTKTLIKTIVTRINLISHTQSVSSKQKVTGAAAIPGLHPILTLSKMDQTLAVYQQILTSMPSQNVIQISNDLENLRDLLHVLAFSKSCHLPWASGLETLDSLGGVLEASGYSTEVVALSRLQGSLQDMLWQLDLSPGC |
